From patent publication US20220251236A1 (Boehringer Ingelheim, published 2022)

T1: human DLL3 (endogenous, on SCLC cell lines NCI-H82 and SHP77 and in SCLC tissue) (human, UniProt Q9NYJ7 27-618)
T1 sequence (looked up): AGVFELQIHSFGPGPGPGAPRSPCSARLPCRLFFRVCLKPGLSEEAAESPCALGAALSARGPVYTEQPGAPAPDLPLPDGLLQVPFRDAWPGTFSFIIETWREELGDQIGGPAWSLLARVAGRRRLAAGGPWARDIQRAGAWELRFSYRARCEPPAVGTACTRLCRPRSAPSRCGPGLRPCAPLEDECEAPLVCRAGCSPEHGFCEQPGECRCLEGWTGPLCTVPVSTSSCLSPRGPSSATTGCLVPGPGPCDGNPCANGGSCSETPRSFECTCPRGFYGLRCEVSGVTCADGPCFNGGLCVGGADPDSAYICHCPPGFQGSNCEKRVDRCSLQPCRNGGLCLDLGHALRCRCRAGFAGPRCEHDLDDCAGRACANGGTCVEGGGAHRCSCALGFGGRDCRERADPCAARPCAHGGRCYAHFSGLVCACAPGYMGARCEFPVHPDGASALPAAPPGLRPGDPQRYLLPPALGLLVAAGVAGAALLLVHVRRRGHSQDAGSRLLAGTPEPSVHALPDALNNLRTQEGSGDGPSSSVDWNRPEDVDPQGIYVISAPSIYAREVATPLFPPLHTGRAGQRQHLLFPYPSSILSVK

T2: EGF6+MEMBRANE PROXIMAL PEPTIDE
T2 construct: also called Hu DLL3 EGF6+membrane proximal peptide on HEK293 cells
T2 membrane-anchored DLL3 subdomain construct: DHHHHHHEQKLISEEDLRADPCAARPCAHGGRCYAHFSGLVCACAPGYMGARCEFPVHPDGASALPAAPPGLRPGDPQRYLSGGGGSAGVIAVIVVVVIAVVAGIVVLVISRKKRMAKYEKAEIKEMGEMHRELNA


Tests used:
[1] = target: T1, human DLL3 (endogenous, on SCLC cell …); experiment: cell-based or functional assay
[2] = target: T2, EGF6+MEMBRANE PROXIMAL PEPTIDE; experiment: flow cytometry on HEK293 cells expressing the DLL3 subdomain construct, 1.6 nM binder, PE anti-human secondary, control: secondary antibody only
Procedure: DLL3/CD3 binding proteins were produced by transient transfection of CHO-E cells with the pTT5 vectors carrying the chain-encoding genes, as described in Example 2. […] Bound molecules were detected with PE-conjugated anti-human secondary antibody (Sigma-Aldrich, #P8047). As negative control, cells were incubated with secondary antibody only.
The samples were measured by flow-cytometry. […] The sequences of the epitope domains are listed in Example 5, Table 3.

[3] = target: T1, human DLL3 (endogenous, on SCLC cell …); experiment: cell-based or functional assay; remark: listed apart in the source
[4] = target: T1, human DLL3 (endogenous, on SCLC cell …); experiment: flow cytometry titration on NCI-H82 cells, PE anti-human secondary, x-fold over background
Text: Cells (T cells or human SCLC cells) were stained with increasing concentrations of two-step purified DLL3/CD3 binding proteins with increasing concentrations in FACS buffer (PBS/0.5% BSA/0.05% sodium azide). Bound molecules were detected with PE-conjugated anti-human secondary antibody (Sigma-Aldrich, #P8047).

| Binder | EC90, 72 hour cytotoxicity assay, purified T cells as effector cells, NCI-H82 target cells [1] | EC90, 72 hour cytotoxicity assay, purified T cells as effector cells, SHP77 target cells [1] | binding result [2] | EC90, 72 hour cytotoxicity assay (LDH release), non-stimulated PBMCs as effector cells, NCI-H82 target cells [3] | EC90, 72 hour cytotoxicity assay (LDH release), non-stimulated PBMCs as effector cells, SHP77 target cells [3] | EC50 (read off the curve) [4] |
| --- | --- | --- | --- | --- | --- | --- |
| DLL3#2/CD3#1 (bispecific antibody, human IgG1, kappa, lambda, L234A L235A, Heterodimer of one DLL3 chain and one CD3 chain (scFab-Fc, knob-in-hole)) chain 1: DIQMTQSPSAMSASVGDRVTITCRASQGISNYLAWFQQKPGKVPEPLIYAASSLQSGVPSRFSGSGSVTEFTLTISSLQPEDFATYYCLQHNSSPYTFGQGTKLEIKRTVAAPSVFIFPPSDEQLKSGTASVVCLLNNFYPREAKVQWKVDNALQSGNSQESVTEQDSKDSTYSLSSTLTLSKADYEKHKVYACEVTHQGLSSPVTKSFNRGECGGGGSEGKSSGSGSESKSTEGKSSGSGSESKSTGGGGSQVQLVQSGAEVKKPGASVKVSCKASGYTFTSYYMHWVRQAPGQGLEWMGIINPSGGSTSYAQKFQGRVTMTRDTSTSTVYMELSSLRSEDTAVYYCARGEAVGGNYYYYGMDVWGQGTTVTVSSASTKGPSVFPLAPSSKSTSGGTAALGCLVKDYFPEPVTVSWNSGALTSGVHTFPAVLQSSGLYSLSSVVTVPSSSLGTQTYICNVNHKPSNTKVDKRVEPKSCDKTHTCPPCPAPEAAGGPSVFLFPPKPKDTLMISRTPEVTCVVVDVSHEDPEVKFNWYVDGVEVHNAKTKPREEQYNSTYRVVSVLTVLHQDWLNGKEYKCKVSNKALPAPIEKTISKAKGQPREPQVYTLPPSREEMTKNQVSLWCLVKGFYPSDIAVEWESNGQPENNYKTTPPVLDSDGSFFLYSKLTVDKSRWQQGNVFSCSVMHEALHNHYTQKSLSLSPG chain 2: EAVVTQEPSLTVSPGGTVTLTCRSSTGAVTTSNYANWVQEKPGQLPRGLIGGTNKRAPWVPARFSGSLLGGKAALTLSGAQPEDEAEYFCALWYSNLWVFGGGTKLTVLGQPKAAPSVTLFPPSSEELQANKATLVCLISDFYPGAVKVAWKADGSPVNTGVETTTPSKQSNNKYAASSYLSLTPEQWKSHRSYSCQVTHEGSTVEKTVAPAECSGGGGSEGKSSGSGSESKSTEGKSSGSGSESKSTGGGGSEVQLVESGGGLVQPGGSLKLSCAASGFTFNTYAMNWVRQAPGKGLEWVARIRSKYNNYATYYADSVKDRFTISRDDSKNTAYLQMNNLKTEDTAVYYCVRHGNFGNSYVSWFAYWGQGTLVTVSAASTKGPSVFPLAPSSKSTSGGTAALGCLVKDYFPEPVTVSWNSGALTSGVHTFPAVLQSSGLYSLSSVVTVPSSSLGTQTYICNVNHKPSNTKVDKRVEPKSCDKTHTCPPCPAPEAAGGPSVFLFPPKPKDTLMISRTPEVTCVVVDVSHEDPEVKFNWYVDGVEVHNAKTKPREEQYNSTYRVVSVLTVLHQDWLNGKEYKCKVSNKALPAPIEKTISKAKGQPREPQVYTLPPSREEMTKNQVSLSCAVKGFYPSDIAVEWESNGQPENNYKTTPPVLDSDGSFFLVSKLTVDKSRWQQGNVFSCSVMHEALHNRFTQKSLSLSPG | 1.51 nM | 0.16 nM | binds | 2.9 nM | 3.4 nM | – |
| DLL3#13/CD3#1 (bispecific antibody, human IgG1, kappa, lambda, L234A L235A, Heterodimer of one DLL3 chain and one CD3 chain (scFab-Fc, knob-in-hole)) chain 1: DVLMTQTPLSLPVSLGDQAAISCRSSQSIVHSNGNTYLEWYLQKPGQSPKVLIYKVSNRFSGVPDRFSGSGSGTDFTLKISRVEAEDLGVYYCFQGSHVPYTFGGGTKLEIKRTVAAPSVFIFPPSDEQLKSGTASVVCLLNNFYPREAKVQWKVDNALQSGNSQESVTEQDSKDSTYSLSSTLTLSKADYEKHKVYACEVTHQGLSSPVTKSFNRGECGGGGSEGKSSGSGSESKSTEGKSSGSGSESKSTGGGGSQIQLVQSGPELKKPGETVKISCKASGYTFTNYGVTWVKQAPGKGLKWMGWINTYSGAPTYADDFNGRFALSLETSASTAYLQINNLKNEDTATYFCARLDDYDLYYFDYWGQGTALTVSSASTKGPSVFPLAPSSKSTSGGTAALGCLVKDYFPEPVTVSWNSGALTSGVHTFPAVLQSSGLYSLSSVVTVPSSSLGTQTYICNVNHKPSNTKVDKRVEPKSCDKTHTCPPCPAPEAAGGPSVFLFPPKPKDTLMISRTPEVTCVVVDVSHEDPEVKFNWYVDGVEVHNAKTKPREEQYNSTYRVVSVLTVLHQDWLNGKEYKCKVSNKALPAPIEKTISKAKGQPREPQVYTLPPSREEMTKNQVSLWCLVKGFYPSDIAVEWESNGQPENNYKTTPPVLDSDGSFFLYSKLTVDKSRWQQGNVFSCSVMHEALHNHYTQKSLSLSPG chain 2: EAVVTQEPSLTVSPGGTVTLTCRSSTGAVTTSNYANWVQEKPGQLPRGLIGGTNKRAPWVPARFSGSLLGGKAALTLSGAQPEDEAEYFCALWYSNLWVFGGGTKLTVLGQPKAAPSVTLFPPSSEELQANKATLVCLISDFYPGAVKVAWKADGSPVNTGVETTTPSKQSNNKYAASSYLSLTPEQWKSHRSYSCQVTHEGSTVEKTVAPAECSGGGGSEGKSSGSGSESKSTEGKSSGSGSESKSTGGGGSEVQLVESGGGLVQPGGSLKLSCAASGFTFNTYAMNWVRQAPGKGLEWVARIRSKYNNYATYYADSVKDRFTISRDDSKNTAYLQMNNLKTEDTAVYYCVRHGNFGNSYVSWFAYWGQGTLVTVSAASTKGPSVFPLAPSSKSTSGGTAALGCLVKDYFPEPVTVSWNSGALTSGVHTFPAVLQSSGLYSLSSVVTVPSSSLGTQTYICNVNHKPSNTKVDKRVEPKSCDKTHTCPPCPAPEAAGGPSVFLFPPKPKDTLMISRTPEVTCVVVDVSHEDPEVKFNWYVDGVEVHNAKTKPREEQYNSTYRVVSVLTVLHQDWLNGKEYKCKVSNKALPAPIEKTISKAKGQPREPQVYTLPPSREEMTKNQVSLSCAVKGFYPSDIAVEWESNGQPENNYKTTPPVLDSDGSFFLVSKLTVDKSRWQQGNVFSCSVMHEALHNRFTQKSLSLSPG | – | – | – | – | – | ~1 nM |
